# B1: Serine/threonine/tyrosine-interacting protein (Homo sapiens), Q8WUJ0 (parent)
# chain: MEDVKLEFPSLPQCKEDAEEWTYPMRREMQEILPGLFLGPYSSAMKSKLPVLQKHGITHIICIRQNIEANFIKPNFQQLFRYLVLDIADNPVENIIRFFPMTKEFIDGSLQMGGKVLVHGNAGISRSAAFVIAYIMETFGMKYRDAFAYVQERRFCINPNAGFVHQLQEYEAIYLAKLTIQMMSPLQIERSLSVHSGTTGSLKRTHEEEDDFGTMQVATAQNG
# Variants of: B1
# Details: with FBXW7, Q969H0-1
# Sequence of FBXW7, Q969H0-1 (Q969H0 whole entry): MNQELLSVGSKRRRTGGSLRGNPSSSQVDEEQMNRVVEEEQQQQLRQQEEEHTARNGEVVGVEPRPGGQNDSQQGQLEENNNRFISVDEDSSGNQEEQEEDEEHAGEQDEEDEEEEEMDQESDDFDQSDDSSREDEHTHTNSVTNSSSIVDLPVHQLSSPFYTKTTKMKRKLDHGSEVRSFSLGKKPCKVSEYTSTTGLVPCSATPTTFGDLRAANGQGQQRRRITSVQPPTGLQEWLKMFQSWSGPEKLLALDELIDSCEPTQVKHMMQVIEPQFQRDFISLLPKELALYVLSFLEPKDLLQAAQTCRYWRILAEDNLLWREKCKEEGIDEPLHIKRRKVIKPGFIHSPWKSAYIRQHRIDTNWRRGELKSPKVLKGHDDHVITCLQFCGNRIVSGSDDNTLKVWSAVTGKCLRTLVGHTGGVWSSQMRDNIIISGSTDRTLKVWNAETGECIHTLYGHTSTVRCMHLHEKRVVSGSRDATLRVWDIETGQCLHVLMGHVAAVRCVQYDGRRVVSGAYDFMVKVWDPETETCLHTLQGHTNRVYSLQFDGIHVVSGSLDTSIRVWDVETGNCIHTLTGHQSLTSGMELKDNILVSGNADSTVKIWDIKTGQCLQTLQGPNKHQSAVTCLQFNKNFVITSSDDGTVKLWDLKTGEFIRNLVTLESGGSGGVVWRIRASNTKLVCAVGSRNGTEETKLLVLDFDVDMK
row,effect of a mutation on the interaction,Variant
1,with no effect,MEDVKLEFPSLPQCKEDAEEWTYPMRREMQEILPGLFLGPYSSAMKSKLPVLQKHGITHIICIRQNIEANFIKPNFQQLFRYLVLDIADNPVENIIRFFPMTKEFIDGSLQMGGKVLVHCNAGISRSAAFVIAYIMETFGMKYRDAFAYVQERRFCINPNAGFVHQLQEYEAIYLAKLTIQMMSPLQIERSLSVHSGTTGSLKRTHEEEDDFGTMQVATAQNG [G120C]
